From paper PMC3298681 (Molecular Cell, 2011)

Target: the molecule itself

B1: DgcB (CC1850), purified (enzyme, Caulobacter crescentus, UniProt Q9A776 1-353, looked up)
chain: MSDVETTLRGPEAYKIASRALELMERHQVWPTALNFELWTHYVADPNGALARELTRLISLGEPMTELVSEELAATFLPKARLNEQIRDAGDILSKELEAVSKAIQNAQKSNAAFGQELAGASKSLDTHTDVASIKAVVGSIAEATRRVHKENQSLEARLADSTAEVERLREHLEQVRRDATTDGLTNLANRKAFDDELDRACAEAEEGGTTICLAVLDIDHFKGFNDTWGHQTGDQVIRYVASVIGRVAAPPRFAARYGGEEFAMIFPREAASVVATTLEEIRVEVSSRMLKRRSTNEDLGAITVSSGFAERKPGESGHSVMERADAALYASKRGGRNRVTAAESMPGAANAA
For B1, the “stoichiometry N” value was 2.
